The test system of assay [1] is thrombin. Kind of assay: Thrombin inhibition in the absence of glycosaminoglycan. In kind it is biochemical, human. Here is the method: All assays were performed at room temperature in 96-well microtiter plates previously coated with 2 mg/mL BSA.
Residual thrombin activity was measured with 150 μM GlyProArg-NA and 1 mg/mL pB in the absence of glycosaminoglycan, 2 mg/mL pB in the presence of heparin and 4 mg/mL in the presence of dermatan sulfate. Residual factor Xa activity was measured with 500 μM Spectrozyme FXa and 2mg/mL pB in the presence or absence of glycosaminoglycan. Residual chymotrypsin activity was measured with 150 μM AlaAlaProPhe-NA and residual trypsin activity was measured with 150 μM GlyProArg-NA.
Assays were performed at least in triplicate on two or more recombinant protein preparations.

Assay [2] can be described thus: Heparin-Sepharose affinity chromatography. In kind it is binding. Particulars: NaCl gradient, 20 mM Hepes pH 7.4. Here is the method: 100 μL of each fraction was aliquoted onto a 96-well microtiter plate and ELISA was performed. The peak elution ionic strength was determined by plotting 405 nm color development and NaCl concentration against the fraction number. All samples were run at least in triplicate using two or more protein preparations. Recombinant ATIII samples were run similarly to the HCII samples, except the elution gradient was run from 50 mM to 2 M NaCl.

Another assay deals with chymotrypsin. Kind of assay: Chymotrypsin inhibition in the absence of glycosaminoglycan. The format is biochemical. Here is the method: Protease inhibition rates were determined as described previously (Rogers, S. J., Pratt, C. W., Whinna, H. C., and Church, F. C. (1992) J. Biol. Chem. 267(6), 3613-3617; Whinna, H. C., Choi, H. U., Rosenberg, L. C., and Church, F. C. (1993) J. Biol. Chem. 268, 3920-3924; Ciaccia, A. V., Cunningham, E. L., and Church, F. C. (1995) Protein Express. Purific. 6, 806-812; Ciaccia, A. V., Willemze, A. J., and Church, F. C. (1997) J. Biol. Chem. 272(2), 888-893). All assays were performed at room temperature in 96-well microtiter plates previously coated with 2 mg/mL BSA.
In the absence of glycosaminoglycan, 50-100 nM rHCII (wt, CHis6, CHis5 Pro, L444R, or L444R-CHis6) or rATIII (wt or CHis6) was incubated with 1 nM thrombin, 0.5 nM Factor Xa, 2 nM chymotrypsin, or 5 nM trypsin, in the presence of 1 mg/mL Polybrene (pB) (for thrombin and Factor Xa) and 2 mg/mL BSA in HNPN, pH 7.4.
Residual thrombin activity was measured with 150 μM GlyProArg-NA and 1 mg/mL pB in the absence of glycosaminoglycan, 2 mg/mL pB in the presence of heparin and 4 mg/mL in the presence of dermatan sulfate. Residual factor Xa activity was measured with 500 μM Spectrozyme FXa and 2mg/mL pB in the presence or absence of glycosaminoglycan. Residual chymotrypsin activity was measured with 150 μM AlaAlaProPhe-NA and residual trypsin activity was measured with 150 μM GlyProArg-NA. Substrate cleavage was measured by color development at […] on a Vmax Kinetic Microplate Reader (Molecular Devices).
Assays were performed at least in triplicate on two or more recombinant protein preparations. All inhibition studies were measured under pseudo-first order conditions where inhibitor [I] is at least ten-fold higher than enzyme (protease) [E], and second-order rate constants were calculated as described previously (Ciaccia, A. V., Cunningham, E. L., and Church, F. C. (1995) Protein Express. Purific. 6, 806-812; Ciaccia, A. V., Willemze, A. J., and Church, F. C. (1997) J. Biol. Chem. 272(2), 888-893).

Assay [3] deals with thrombin. The experiment in a line: Plasma-based thrombin inhibition assay. To be noted: for Inhibition Rate k2 × 10^8 (M^-1 min^-1), thrombin in plasma: 10 nM serpin. The format is biochemical, human. The protocol:
The assay to evaluate rHCII (wt and rHCII-CHis6) in plasma was designed based on previously published methods (Tollefsen, D. M., and Pestka, C. A. (1985) Blood 66(4), 769-774; Griffith, M. J., Carraway, T., White, G. C., and Dombrose, F. A. (1983) Blood 61(1), 111-118). All assays were performed at room temperature in 96-well microtiter plates previously coated with 2 mg/mL BSA. This assay was performed using normal hemostasis reference plasma (REF), human antithrombin III-deficient plasma (DEF), or a 50:50 mixture of these plasmas (REF/DEF). Within the assay, 10 nM rHCII or rHCII-CHis6 was incubated for 15 sec with I nM thrombin and 1 μg/mL heparin or 50 μg/mL dermatan sulfate, in the presence of a 1:100 dilution of plasma. Residual thrombin activity was measured with 300 μM GPA and 2 mg/mL pB. Substrate cleavage was measured by color development at […] on a Vmax Kinetic Microplate Reader. Second order rate constants were measured at least in triplicate on two recombinant protein preparations as described in Example 4.

Assay [4] deals with plasma-purified α-thrombin. Kind of assay: Thrombin inhibition with heparin before and after carboxypeptidase A digest. In kind it is biochemical, human. Particulars: 2 hr, room temperature, FIG. 3. The protocol:
Forty ng of CPA was combined with approximately 1 μg of recombinant protein and incubated at room temperature. Following a 2-hr incubation at room temperature, 2 mM EDTA was added to quench CPA activity. Controls were run in which EDTA was added to the reaction prior to the addition of CPA. CPA digested proteins were then assayed according to previously mentioned procedures.

From patent publication US6207419A, “Thrombin inhibitory agents and methods of using same” (The University of North Carolina at Chapel Hill, priority 1999, dated 2001) come the findings set out here.

B1: rHCII-CHis6: Recombinant HCII with six histidine residues added at the carboxyl terminus; SEQ ID NO:5 (protein)
chain: MKHSLNALLIFLIITSAWGGSKGPLDQLEKGGETAQSADPQWEQLNNKNLSMPLLPADFHKENTVTNDWIPEGEEDDDYLDLEKIFSEDDDYIDIVDSLSVSPTDSDVSAGNILQLFHGKSRIQRLNILNAKFAFNLYRVLKDQVNTFDNIFIAPVGISTAMGMISLGLKGETHEQVHSILHFKDFVNASSKYEITTIHNLFRKLTHRLFRRNFGYTLRSVNDLYIQKQFPILLDFRTKVREYYFAEAQIADFSDPAFISKTNNHIMKLTKGLIKDALENIDPATQMMILNCIYFKGSWVNKFPVEMTHNHNFRLNEREVVKVSMMQTKGNFLAANDQELDCDILQLEYVGGISMLIVVPHKMSGMKTLEAQLTPRVVERWQKSMTNRTREVLLPKFKLEKNYNLVESLKLMGIRMLFDKNGNMAGISDQRIAIDLFKHQGTITVNEEGTQATTVTTVGFMPLSTQVRFTVDRPFLFLIYEHRTSCLLFMGRVANPSRSHHHHHH
modifications: C-terminal His6 tag
With B1, the “Ratio (mutant/wt serpin), thrombin” value in the assay on thrombin [1] worked out at 1.48. Moreover, the “rate of thrombin inhibition relative to wt-rHCII” value in the assay with thrombin [1] was 1.5 fold. Further, the “k2 × 10^4 (M^-1 min^-1), thrombin” value in the assay with thrombin [1] (pH 7.4, mean ± S.D.) was 1.92 ± .10 × 10^4 (M^-1 min^-1). Besides, the “Heparin-Sepharose [NaCl], peak elution concentration” value in assay [2] was 575 mM. Further, the “Ratio (mutant/wt serpin), chymotrypsin” value in the assay with chymotrypsin is recorded as “.860”. Further, the “chymotrypsin inhibition compared with wt-rHCII, in words” value in the assay on chymotrypsin was “essentially the same”. For the same molecule, in the assay with chymotrypsin (pH 7.4, mean ± S.D.), the “k2 × 10^4 (M^-1 min^-1), chymotrypsin” value is recorded as 61.0 ± 16 × 10^4 (M^-1 min^-1). Besides, the “increase of thrombin inhibition rate compared to wt-rHCII” value is 1.2-1.3 fold in the assay on thrombin [3] (50 μg/mL dermatan sulfate, each of the plasma conditions); 1.5 fold with thrombin [3] (50:50 mixture of REF/DEF, 1 μg/mL heparin); 4.6 fold in the assay with thrombin [3] (DEF plasma, 1 μg/mL heparin); 1.5 fold with thrombin [3] (REF plasma, 1 μg/mL heparin). Also, the “Inhibition Rate k2 × 10^8 (M^-1 min^-1), thrombin in plasma” value is reported as 7.0 × 10^8 (M^-1 min^-1) in the assay on thrombin [3] (Dermatan Sulfate (50 μg/mL), 50:50 Mixture (REF/DEF) plasma 1:100); 7.5 × 10^8 (M^-1 min^-1) in the assay with thrombin [3] (Dermatan Sulfate (50 μg/mL), ATIII Deficient (DEF) plasma 1:100); 7.2 × 10^8 (M^-1 min^-1) in the assay with thrombin [3] (Dermatan Sulfate (50 μg/mL), Normal Reference (REF) plasma 1:100); 2.8 ± .18 × 10^8 (M^-1 min^-1) in the assay on thrombin [3] (Heparin (1 μg/mL), 50:50 Mixture (REF/DEF) plasma 1:100); 1.2 ± .10 × 10^8 (M^-1 min^-1) with thrombin [3] (Heparin (1 μg/mL), ATIII Deficient (DEF) plasma 1:100); 3.3 ± .37 × 10^8 (M^-1 min^-1) in the assay with thrombin [3] (Heparin (1 μg/mL), Normal Reference (REF) plasma 1:100). For the same molecule, the “change of heparin-dependent thrombin inhibition after CPA digest, in words” value in assay [4] is on record as “shifts to lower rates of inhibition”.
